Laboratory results taken from article PMC12751049.

Legend:
[1] = molecular target: Complement 1q binding protein (C1qBP), recombinant His-tagged, residues 75-282 (human); assay: SEC-MALS; Superdex 200 10/300 GL, 20 mM Na2HPO4, 20 mM NaCl, pH 6.5; proteins at 2-4 mg/ml alone or CypD:C1qBP mixture at 2:1 molar ratio; eluted complex checked by SDS-PAGE
[2] = molecular target: Complement 1q binding protein (C1qBP), recombinant His-tagged, residues 75-282 (human); assay: dynamic and static light scattering (DLS/SLS); C1qBP at 0.8 mg/ml, 20 mM HEPES pH 7.4, 37°C, with 2.5 mM CaCl2; trimer to dimer of trimers

stoichiometry N [1] | stoichiometry N [2] | stoichiometry N (CypD per C1qBP trimer) [1] | Substance
3 | 6 | – | Complement 1q binding protein (C1qBP), recombinant His-tagged, residues 75-282 (natural protein)
– | – | 1 | Cyclophilin D (CypD), recombinant, residues 44-207 (enzyme)
